T1: lysyl oxidase (LO) (Bos taurus, UniProt P33072)
T1 construct: per mature LO molecule (32 kD); from tissue
T1 sequence (P33072 170-418): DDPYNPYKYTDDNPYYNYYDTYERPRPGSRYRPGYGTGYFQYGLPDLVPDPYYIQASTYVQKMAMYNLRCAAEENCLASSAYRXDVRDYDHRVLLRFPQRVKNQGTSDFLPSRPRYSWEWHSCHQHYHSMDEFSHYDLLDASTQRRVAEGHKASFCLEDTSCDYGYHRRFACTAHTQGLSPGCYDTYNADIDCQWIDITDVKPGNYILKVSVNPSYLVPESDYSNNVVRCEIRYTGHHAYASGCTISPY

B1: FGF4: human recombinant fibroblast growth factor 4 (R & D Systems) (protein, UniProt P08620 31-206, looked up)
Fibroblast growth factor 4: APTAPNGTLEAELERRWESLVALSLARLPVAAQPKEAAVQSGAGDYLLGIKRLRRLYCNVGIGFHLQALPDGRIGGAHADTRDSLLELSPVERGVVSIFGVASRFFVAMSSKGKLYGSPFFTDECTFKEILLPNNYNAYESYKYPGMFIALSKNGKTKKGNRVSPTMKVTHFLPRL
B2: FGF5: human recombinant fibroblast growth factor 5 (R & D Systems) (protein, UniProt P12034 21-268, looked up)
Fibroblast growth factor 5: HGEKRLAPKGQPGPAATDRNPRGSSSRQSSSSAMSSSSASSSPAASLGSQGSGLEQSSFQWSPSGRRTGSLYCRVGIGFHLQIYPDGKVNGSHEANMLSVLEIFAVSQGIVGIRGVFSNKFLAMSKKGKLHASAKFTDDCKFRERFQENSYNTYASAIHRTEKTGREWYVALNKRGKAKRGCSPRVKPQHISTHFLPRFKQSEQPELSFTVTVPEKKKPPSPIKPKIPLSAPRKNTNSVKYRLKFRFG
B3: FGF6: human recombinant fibroblast growth factor 6 (R & D Systems) (protein, UniProt P10767 38-208, looked up)
Fibroblast growth factor 6: SPAGTRANNTLLDSRGWGTLLSRSRAGLAGEIAGVNWESGYLVGIKRQRRLYCNVGIGFHLQVLPDGRISGTHEENPYSLLEISTVERGVVSLFGVRSALFVAMNSKGRLYATPSFQEECKFRETLLPNNYNAYESDLYQGTYIALSKYGRVKRGSKVSPIMTVTHFLPRI

Target: T1, lysyl oxidase (LO)
Assay: LO-dependent H2O2 release, horseradish peroxidase-coupled fluorescence assay (substrate potential for LO)
Format: biochemical
Conditions: factor as sole substrate, LO-dependent H2O2 release in vitro
Method: The oxidation of a primary amine substrate by LO yields stoichiometric amounts of the corresponding aldehyde, hydrogen peroxide and ammonia, as shown: RCH2NH2+O2+H2O→RCHO+H2O2+NH3 (Kagan, 1986). To assess the substrate potential of FGF2, LO-dependent H2O2 release was monitored in assays using FGF2 as the sole substrate, using both the optimum temperature for LO activity of 55° C. and the physiological temperature of 37° C. (Trackman et al., 1981).
LO reaction with FGF2 as a substrate was assessed by a horseradish peroxidase-coupled fluorescence assay for H2O2 production. Reaction mixtures contained 0.25 mg of sodium homovanillate(HVA), 40 μg of HRP, and FGF2 at doses as indicated below in 0.05 M sodium borate buffer, pH 8.2, in a final volume of 2 ml. Assays were initiated by the addition of LO to reaction mixtures. H2O2 release was continuously monitored at excitation and emission wavelengths of 315 and 425 nm, respectively, at a constant temperature of 55° C. or 37° C., as specified, in the thermostatted cuvette chamber of an SLM Aminco Bowman Series 2 Luminescence Spectrometer. All activity data were corrected for background rates of H2O2 release determined in complete assay mixtures supplemented with 200 μM BAPN, an irreversible inhibitor of LO. In FIG. 4, solid curves represent the time course of H2O2 release at 55° C. in the reaction of 0.16 μM LO with 0.23 (a), 0.45 (b) and 0.9 (c) μM FGF2, respectively. Dotted curve (d) represents the time course of H2O2 release in the reaction of 0.16 μM LO with 0.9 μM FGF2 at 37° C. The same data were obtained from three separate experiments.
Using the fluorometric assay (Trackman et al., 1981) to monitor LO-dependent H2O2 release in vitro, the substrate potential of other growth factors was also assessed. Major members of the FGF family tested included FGF 1, 4, 5, 6, 7 and EGF (note: All factors are human recombinant forms purchased from R & D Systems, Inc., Minneapolis, Minn.).
A human recombinant disulfide-linked dimer of VEGF165 (MW: 42 kDa)(R & D Systems) as a sole substrate was tested by using the standard in vitro LO catalysis assays as described above for FIG. 4 (Trackman et al., 1981). Curves represent the time course of H2O2 release at 55° C. (a) or 37° C. (b) in the reaction of 0.10 μM LO with 0.45 μM VEGF165. All activity data were corrected for background rates of H2O2 release determined in complete assay mixtures supplemented with the same amounts of LO preincubated with 100 μM BAPN for 15 min at 37° C. The same data were obtained from three separate experiments.
The standard in vitro LO catalysis assays as described above for FIG. 4 (Trackman et al., 1981) using human recombinant PDGF-AB (R & D Systems) as a sole substrate was tested. […] In FIG. 19, curves represent the time course of H2O2 release at 55° C. (a) and 37° C. (b) in the reaction of 0.11 μM LO with 0.46 μM PDGF-AB, respectively. All activity data were corrected for background rates of H2O2 release determined in complete assay mixtures supplemented with the same amounts of LO preincubated with 100 μM BAPN for 15 minutes at 37° C. The same data were obtained from three separate experiments.
To analyze the substrate potential of Tat, the standard in vitro LO catalysis assays as described in FIG. 4 (Trackman et al., 1981) was performed at the optimum temperature of 55° C. and at the physiological temperature of 37° C. A recombinant Tat with 9 lysines in a total of 86 amino acids was used as a sole substrate. FIG. 12A represents a dose and temperature-dependent response. Curves represent the time course of H2O2 release at 55° C. (solid) or 37° C. (dotted) in the reaction of 0.10 μM LO with 0.22 (a and d), 0.43 (b and e) and 0.85 (c and f) μM Tat, respectively. All activity data were corrected for background rates of H2O2 release determined in complete assay mixtures supplemented with the same amounts of LO preincubated with 100 μM BAPN for 15 min at 37° C. […]

Row | Molecule | substrate of LO (in words)
1 | B1 | substrates of LO
2 | B2 | substrates of LO
3 | B3 | substrates of LO

Same assay, conditions: oxidation by LO in vitro, 37° C. (molar ratio of H2O2 released per molecule of substrate)

Row | Molecule | Oxidized Lysines per Molecule 37° C.
4 | B1 | 3.6
5 | B2 | 10.0
6 | B3 | 3.1

Same assay, conditions: oxidation by LO in vitro, 55° C.

Row | Molecule | Oxidized Lysines per Molecule 55° C.
7 | B1 | 14.5
8 | B2 | 18.0
9 | B3 | 7.2
